Experimental data as given in patent US20130210108.

B1: PP1084 protein (3-Cys peroxiredoxin of Pseudomonas putida KT2440), His-tagged, non-irradiated or gamma-irradiated (protein)
chain: MSVLVGKKAPDFTVPAVLGNGEIVDSFNLASAIKGKYGLVFFYPLDFTFVCPSELIALDNRIPDFQARNVEVIGVSIDSHFTHNAWRNTPVNNGGIGQVKYTLAADMTHEICKAYDVESEGGVAFRGAFLIDTNGVVRSQIVNDLPLGRNMDELLRLVDALQFHEEHGEVCPANWKKGDKGMNASPEGVAAYLSENAGKL
B2: PA3529 protein (2-Cys peroxiredoxin of Pseudomonas aeruginosa PAO1), His-tagged, non-irradiated or gamma/UV-irradiated (protein)
chain: MSVLVGKKAPDFNVAAVLGNGEIVESFTLSEAIKGKYGLVFFYPLDFTFVCPSELIALDHRIPEFQARNVEVIGVSIDSHFTHNAWRNTPVDKGGIGAVKYTLAADTKHEIAKAYDVESDGGVAFRGAFLIDKEGVVRSQIVNDLPLGRNMDELLRLVDALQFHEEHGEVCPANWKKGDKGMTASPEGVAKYLAENASKL

Target: malate dehydrogenase (MDH)

| Protein | chaperone activity against the non-irradiated group | increase rate of OD650nm of MDH heated at 43 C (holdase chaperone activity) | MDH aggregation at 43 C for 15 minutes, PaPrx:MDH 1:1 (molecular chaperone activity after UV irradiation) |
| --- | --- | --- | --- |
| B1 | Chaperone activity of Prx protein was three-fold increased by gamma irradiation at 15˜30 kGy, compared with the non-irradiated group | the lowest OD was observed at 30 kGy, indicating that chaperone activity was highest at 30 kGy | – |
| B2 | Chaperone activity of Prx protein was three-fold increased by gamma irradiation at 15˜30 kGy, compared with the non-irradiated group | the lowest OD was observed at 30 kGy, indicating that chaperone activity was highest at 30 kGy | as the UV irradiation time increased, the molecular chaperone activity increased regularly |
